5 molecules from patent US20220289837A1, “Cystic Fibrosis Transmembrane Conductance Regulator Stabilizing Agents” (VIB VZW, priority 2019, published 2022) can be followed below.

The chains are these.
B1: D12: NBD1-specific CFTR-stabilizing nanobody, SEQ ID NO:2, binds epitope 1 (protein)
VHH: QVQLQESGGGLVQAGSSLRLACAATGSIRSINNMGWYRQAPGKQRGMVAIITRVGNTDYADSVKGRFTISRDNAKNTVYLQMNSLKPEDTATYYCHAEITEQSRPFYLTDDYWGQGTQVTVSS
modifications: D12 Nanobody amino acid sequence
B2: G3a: non-stabilizing nanobody, SEQ ID NO:50, recognizes the structurally diverse region of NBD1 (protein)
VHH: QVQLQESGGGLVQAGGSLRLSCTASGRAFSWYVMGWFRQAPGKEREFVATVSGNGSRRDYADSVKGRFTISRDNAKNTVYLQMNSLKPEDTAVYYCAASSTYYYTDPEKYDYWGQGTQVTVSS
modifications: G3a Nanobody
B3: T27: NBD1-specific CFTR-stabilizing nanobody, SEQ ID NO:4, binds epitope 1 (protein)
VHH: QVQLQESGGGLEQPGGSLRLSCATSGVIFGINAMGWYRQAPGKQRELVATFTSGGSTNYADFVEGRFTISRDNAKNTVYLQMNGLRPEDTAVYYCHATVVVSRYGLTYDYWGQGTQVTVSS
modifications: T27 Nanobody amino acid sequence
B4: T8: nanobody, SEQ ID NO:7, binds epitope 2 including F508, stabilizes WT CFTR but not F508del (protein)
VHH: QVQLQESGGGLVQPGGSLRLSCAASGSTSSINAMGWYRQAPGKQREPVAISSSGGDTRYAEPVKGRFTISRDNAQNKVYLQMNSLKPEDTAVYYCWLNWGRTSVNSWGQGTQVTVSS
modifications: T8 Nanobody amino acid sequence
B5: T2a: NBD1-specific CFTR-stabilizing nanobody, SEQ ID NO:3, binds epitope 1 (protein)
VHH: QVQLQESGGGLVQAGGSLRLSCAASGSIFRIDAMGWYRQAPGKQRELVAHSTSGGSTDYADSVKGRFTISRDNAKNTVYLQMNSLKPEDTAVYYCNADVRTRWYASNNYWGQGTQVTVSS
modifications: T2a Nanobody amino acid sequence

T2 sequence (P13569 whole entry): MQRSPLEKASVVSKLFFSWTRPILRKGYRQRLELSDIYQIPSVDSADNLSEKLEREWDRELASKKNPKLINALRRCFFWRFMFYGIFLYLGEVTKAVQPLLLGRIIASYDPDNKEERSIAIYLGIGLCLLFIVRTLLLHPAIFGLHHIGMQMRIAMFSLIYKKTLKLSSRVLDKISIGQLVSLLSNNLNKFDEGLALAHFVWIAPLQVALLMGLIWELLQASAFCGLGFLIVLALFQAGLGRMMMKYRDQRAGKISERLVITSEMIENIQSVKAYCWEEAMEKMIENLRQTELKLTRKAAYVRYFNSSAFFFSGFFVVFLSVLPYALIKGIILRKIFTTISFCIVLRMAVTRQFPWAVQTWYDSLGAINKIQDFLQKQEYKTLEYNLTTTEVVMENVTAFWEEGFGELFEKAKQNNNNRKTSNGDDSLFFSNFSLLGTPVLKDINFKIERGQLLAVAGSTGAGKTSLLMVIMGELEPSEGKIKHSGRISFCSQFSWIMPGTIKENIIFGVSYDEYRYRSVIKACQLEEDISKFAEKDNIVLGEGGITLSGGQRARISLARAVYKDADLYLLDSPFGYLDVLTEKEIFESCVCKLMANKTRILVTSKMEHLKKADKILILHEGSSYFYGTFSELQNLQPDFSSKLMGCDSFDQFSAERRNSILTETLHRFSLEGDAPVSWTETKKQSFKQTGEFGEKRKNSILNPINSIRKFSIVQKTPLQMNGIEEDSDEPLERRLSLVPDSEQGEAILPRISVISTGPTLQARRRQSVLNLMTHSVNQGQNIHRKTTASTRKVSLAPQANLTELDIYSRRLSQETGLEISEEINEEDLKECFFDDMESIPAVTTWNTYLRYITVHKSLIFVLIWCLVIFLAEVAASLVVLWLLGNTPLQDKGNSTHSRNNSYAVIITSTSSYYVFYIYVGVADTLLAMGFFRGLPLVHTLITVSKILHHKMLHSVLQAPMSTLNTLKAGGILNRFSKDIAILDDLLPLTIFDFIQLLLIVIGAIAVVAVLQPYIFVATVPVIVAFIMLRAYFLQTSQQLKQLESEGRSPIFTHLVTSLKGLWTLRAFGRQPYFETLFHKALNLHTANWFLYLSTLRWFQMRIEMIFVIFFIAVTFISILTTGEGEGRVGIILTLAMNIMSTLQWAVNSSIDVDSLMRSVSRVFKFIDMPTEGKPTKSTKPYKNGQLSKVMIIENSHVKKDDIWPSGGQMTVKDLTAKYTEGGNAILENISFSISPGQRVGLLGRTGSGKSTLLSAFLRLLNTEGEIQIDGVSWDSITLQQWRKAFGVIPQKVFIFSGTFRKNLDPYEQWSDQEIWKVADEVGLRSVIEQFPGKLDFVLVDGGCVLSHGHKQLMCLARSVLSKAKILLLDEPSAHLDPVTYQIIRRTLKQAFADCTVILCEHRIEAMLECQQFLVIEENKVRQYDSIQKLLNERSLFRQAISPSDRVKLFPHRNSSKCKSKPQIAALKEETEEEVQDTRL

In the first data set the target is T1, 2PT-NBD1 (Homo sapiens, UniProt P13569, A534P/I539T/S492P/V470M).
T1 construct: 2PT-NBD1 mutants (residues 387-646 containing the mutations S492P, A534P, I539T); His6-SUMO (N, cleaved yes); made in house; host or cells: Escherichia coli BL21(DE3) pLysS
T1 sequence (P13569 388-646 V470M/S492P/A534P/I539T): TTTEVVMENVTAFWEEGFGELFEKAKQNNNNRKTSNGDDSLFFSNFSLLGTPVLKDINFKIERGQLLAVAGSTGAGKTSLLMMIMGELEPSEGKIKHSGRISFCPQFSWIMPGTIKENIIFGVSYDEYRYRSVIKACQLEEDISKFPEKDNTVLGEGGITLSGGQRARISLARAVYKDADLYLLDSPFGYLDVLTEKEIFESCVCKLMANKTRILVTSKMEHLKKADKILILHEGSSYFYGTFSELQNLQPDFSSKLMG
Kind of data set: Thermal shift assay (DSF) of 2PT-NBD1. The data set is classed as binding. As to conditions: versus isolated 2PT-NBD1. The method, then:
Solutions of either 2PT-NBD1 or F508del-2PT-NBD1 (10 μM final concentration), nanobodies (30 μM final concentration) and 2.5× or 5× concentrated SYPRO Orange Protein Stain (Molecular Probes) diluted in 20 mM HEPES pH 7.5, 150 mM NaCl, 3 mM MgCl2, 2 mM ATP and 10% (w/v) glycerol, 10% (w/v) ethylene glycol, were added to the wells of a 96-well PCR plates type BR white (VWR) in a final volume of 25 μl. Plates were sealed with EasySeal sheets (Molecular dimensions) and spun 2 min at 900× g. SYPRO orange fluorescence was monitored in CFX96 Touch Real-Time PCR Detection System (Bio-Rad) using FRET scan mode from 10 to 80° C. in increments of either 1° C. or 0.2° C.
Regarding B1, the “increase of Tm of 2PT-NBD1” value was 13.8 °C.
Still for that read-out and setting: the result for B2 reads “did not induce a significant shift”; that for B3, 11.9 °C.
Still for that read-out and setting: the result for B4 reads 9.3 °C; that for B5, 11.2 °C.

The next data set concerns parental BHK-21 cells. Kind of data set: Flow cytometry on parental BHK-21 cells. In kind it is cell-based, hamster. The settings on record: compared to negative control nanobody. The method, then:
(§1) Parental BHK-21 cells (ATCC; CCL-10) and cells stably overexpressing human wt-CFTR^[43,44,47] or 2PT-F508del-CFTR, as described above, were permeabilized with 0.01% n-Dodecyl-β-D-Maltopyranoside β-DDM—Inalco) at least for 2 h on ice. In the meantime, cells were incubated with 50 μg/ml nanobodies and DRAQ7 (0.3 μM—Biostatus) to monitor the permeabilization state. Nanobody binding was detected by using His-tag specific antibody (Invitrogen, catalogue number MA1-135, 1 μg/ml) or Myc-tag specific antibody (Invitrogen, catalogue number 13-2500, 2 μg/ml) and then anti-mouse-Alexa Fluor 488 (Invitrogen, catalogue number A11001, 1.3 μg/ml) at least for 30 min on ice. Cells were washed one time between each step by centrifugation (200×g for 5 min at 4° C.). All incubations (100 μl) and washes (1.5 ml) were performed in PBS with 6% fetal bovine serum (FBS) and 0.01%13-DDM on ice. Cells fluorescence was measured with Gallios Flow Cytometer (Beckman Coulter). Data were analyzed with Kaluza software.
In the case of B1, the “labelling of parental BHK-21 cells” value was “no difference in labelling”.
Still for that read-out and setting: the result for B2 reads “no difference in labelling”; that for B3, “no difference in labelling”.
On the same count and under the same terms, the same measure for B4: “no difference in labelling”; for B5: “no difference in labelling”.

The target of the next data set is T2, wt-CFTR (Homo sapiens, UniProt P13569). Kind of data set: Flow cytometry on permeabilized BHK-21 cells overexpressing wt-CFTR. In kind it is cell-based. Further details: expressed in transfected cells. The settings on record: compared to negative control nanobody. The method, then:
as §1
On the technique in general: In flow cytometry, cells or beads pass a laser one at a time.
Take B1: the “labelling of BHK-21 cells overexpressing wt-CFTR” value is listed as “increased labelling”.
On the same count and under the same terms, the result for B2 reads “increased labelling”; that for B3, “increased labelling”; that for B4, “increased labelling”.
Same read-out and setting: the same measure for B5: “increased labelling”.

In a further data set the target is T2, wt-CFTR. Kind of data set: CFTR pull-down from solubilized BHK-21 cells with immunoblot. Further details: expressed in transfected cells. The data set is classed as binding. As to conditions: immunoblot with mAb 596. The method, then:
Human wt-CFTR was extracted from BHK-21 cells pellet by solubilization with 1% DMNG in PBS with proteases inhibitors for 1 h at 4° C. The cells debris were removed by centrifugation (16,000×g for 30 min at 4° C.). Supernatant was diluted 10 times in PBS with proteases inhibitors plus 10 mM imidazole and incubated at least for 30 min on HisPur Ni-NTA Resin (Thermo Scientific) pre-loaded with nanobodies. Resin was washed with 40 column volumes of PBS with 300 mM NaCl. Nanobodies were eluted with 200 mM imidazole in PBS. Presence of CFTR in each sample was detected by SDS-PAGE and immuno-blotting.
Cell extracts were separated by SDS-PAGE on 7.5% polyacrylamide gel and transferred to nitrocellulose membrane (Bio-Rad) for immunodetection. After blocking for 1 h with 5% bovine serum albumin (BSA) in Tris-buffered saline added 0.05% Tween-20 (TBST), CFTR was detected using monoclonal antibody mAb 596, IgG2b (CFTR Antibody Distribution Program, dilution 1:46) for 1 h in blocking buffer. Blot was washed 3 times 5 min and incubated with anti-mouse-HRP antibody (Millipore, catalogue number: AP308P, 0.2 μg/ml) for 1 h in TBST. Membrane was washed 3 times for 5 min. CFTR was visualized by chemiluminescence using Luminata Forte Western HRP Substrate (Millipore) and detected with ImageQuant 400 (GE Healthcare).
(In western blotting, separated proteins are transferred to a membrane and probed.)
B1: the “pull-down of cellular CFTR, electrophoresis pattern (mature band C)” value was “also observed”.
Same read-out and setting: the result for B2 reads “identical electrophoresis pattern as observed in whole cell lysate”; that for B3, “also observed”; that for B4, “identical electrophoresis pattern as observed in whole cell lysate”.
Same read-out and setting: the result for B5 reads “identical electrophoresis pattern as observed in whole cell lysate”.

In the next data set the target is T2, wt-CFTR. The data set can be described thus: ATPase activity of wt-CFTR. The data set is classed as biochemical. Also on record: His10-SUMO* (N); FLAG; EGFP (C); made in house; host or cells: HEK 293 cell line D165. As to conditions: saturating concentration of nanobody. The method, then: To determine effect of nanobodies on functional stability, aliquots of purified wt-CFTR (25 nM) were preincubated 1 h on ice with 1 μM nanobody (or 15 μM, in the case of G3a). Substrate α-[32P]-ATP (2 μl) was then added for measurement of ATPase activity as previously described^[48]. Then, nanobody protection against thermal denaturation was determined after a 30 min thermal challenge of the protein complexes followed by an assay of residual ATPase.
B1: the ATPase activity is on record as 50 % of PKA-phosphorylated CFTR.
Still for that read-out and setting: the result for B2 reads “did not affect”; that for B3, 30 % of PKA-phosphorylated CFTR.
On the same count and under the same terms, the same measure for B4: 60 % of PKA-phosphorylated CFTR.
On the same count and under the same terms, the result for B5 reads 50 % of PKA-phosphorylated CFTR.
